Test results: article PMC9603128, “Physiological, Biochemical, and Structural Bioinformatic Analysis of the Multiple Inositol Dehydrogenases from Corynebacterium glutamicum” (Microbiology Spectrum, 2022)

B1: OxiB (Corynebacterium glutamicum ATCC 13032) (protein)
chain: MTQQELRVAVIGAGMAGKAHAAGYRTASSIYSTTLPNIRLVSIADANVQLAEETAARFGFERFDTSWQAIVEADDIDVVSVVVANFLHREIVEALLASGKHVLCEKPLSDTIEDAEAMIEAAGRAATNGTIARIGLTYRRSPGVAHIRDLVQSGELGKVLHVTGHYWTDYGSNAQAPISWRYKGPNGSGALADVGSHLTYLAEFVAGSDFAAVRGGQLSTVITERPKPLGAIVGHEGGAVSDEYEAVENDDIASFSGSFIGGGTATLQVSRISQGHPNTLGFEVFCEKGSVLFDFRNSGEFKIFTPATSGDISQEAGYRTITIGPKHPYWRGGLAMDAPGVGIGQNEGFVFQARAFLEEIAGISEAESLPRCATLEEGLHNMQLIDAVSQSAAAGGETVAVPAAALIPANN
notes: full length, C-terminal Strep-tag II, expressed in C. glutamicum MB001(DE3) from pPREx6-OxiB; StrepTactin and size exclusion
B2: OxiE (Corynebacterium glutamicum ATCC 13032) (protein)
chain: MKNITIGMVGVGRIGRMHVANMLAVAETLKERDLNIEIVLADAMPGFAEQVGADMGVKAAASVDKLIEDGVDALFIATSTAGHVDVLRKGIAAKLPMFCEKPIASDVPESLNIIREIDAAGATVQVGHQRRFDLGYQEAKRRLDAGDLGWLHSLKAVSSDAFPPPVSYCATSGGLFRDVSLHDFDIIRWLTGQDIVEVYAKGSNNGDPEIGAVGDIDTGAALLTLADGTLATAIATRYNGAGHDVRLDVMGSKDSTIVGLDEKSAFASAEEGIDFPTGESHPTFAERFADAYKNECIAFVELILGERENPCTPADAVAAAIVADAAQLSLVTGEPVKIPTVREILEGSAQPVEVRALVPSA
notes: full length, C-terminal Strep-tag II, expressed in C. glutamicum MB001(DE3) from pPREx6-OxiE; StrepTactin and size exclusion
B3: IolG (Corynebacterium glutamicum ATCC 13032) (protein)
chain: MSKSLRVGVVGAGAMGADHIDRINNRTSGAHISAIIEPDAARAAAAAEDAPGAQAFTRIEDAIAADAVDAVLIAVPGQFHEPVLVPALEAGLPILCEKPLTPDSESSLRIVELEQKLDKPHIQVGFMRRFDPEYNNLRKLVESGEAGELLMLRGLHRNPSVGESYTQSMLITDSVVHEFDVIPWLAGSRVVSVEVKYPKTSSLAHSGLKEPILVIMELENGVLVDVEMNVNIQFGYQVATEAVFEKGLARIGQPSGMQRWRDGEFLINEHTDFTTRFATAYDRQIQSWVDAVHEGTLVAGPNAWDGYLVALSCEAGVKALDGGVIPVDAAPRPDFYA
notes: full length, C-terminal Strep-tag II, expressed in C. glutamicum MB001(DE3) from pPREx6-IolG; StrepTactin and size exclusion
B4: OxiD (Corynebacterium glutamicum ATCC 13032) (protein)
chain: MTLRIALFGAGRIGHVHAANIAANPDLELVVIADPFIEGAQRLAEANGAEAVASPDEVFARDDIDGIVIGSPTSTHVDLITRAVERGIPALCEKPIDLDIEMVRACKEKIGDGASKVMLGFNRRFDPSFAAINARVANQEIGNLEQLVIISRDPAPAPKDYIAGSGGIFRDMTIHDLDMARFFVPNIVEVTATGANVFSQEIAEFNDYDQVIVTLRGSKGELINIVNSRHCSYGYDQRLEAFGSKGMLAADNIRPTTVRKHNAESTEQADPIFNFFLERYDAAYKAELATFAQGIRDGQGFSPNFEDGVIALELANACLESAQTGRTVTLNPANV
notes: full length, C-terminal Strep-tag II, expressed in C. glutamicum MB001(DE3) from pPREx6-OxiD; StrepTactin and size exclusion

How the values were obtained:
Assay in all cases: purified protein
Format in all cases: biochemical, Corynebacterium glutamicum
Settings in all cases: 5 mM NAD+, pH 7.5, 100 mM potassium phosphate, 1 mM MgSO4, 30 °C, substrate 0.5 to 50 mM
purified protein [1] = substrate: O[C@H]1[C@H](O)[C@@H](O)[C@H](O)[C@@H](O)[C@@H]1O
purified protein [2] = substrate: O[C@H]1[C@H](O)[C@@H](O)[C@H](O)[C@@H](O)[C@H]1O
purified protein [3] = substrate: O[C@H]1[C@H](O)[C@H](O)[C@@H](O)[C@H](O)[C@H]1O

Protein | Km (purified protein [1]) [mM] | Vmax (purified protein [1]) [µmol/min/mg] | kcat (purified protein [1]) [s⁻¹] | kcat/Km (purified protein [1]) [M⁻¹ s⁻¹] | Km (purified protein [2]) [mM] | Vmax (purified protein [2]) [µmol/min/mg] | kcat (purified protein [2]) [s⁻¹] | kcat/Km (purified protein [2]) [M⁻¹ s⁻¹] | Km (purified protein [3]) [mM] | Vmax (purified protein [3]) [µmol/min/mg] | kcat (purified protein [3]) [s⁻¹] | kcat/Km (purified protein [3]) [M⁻¹ s⁻¹]
B1 | 28.8 ± 7.1 | 0.05 | 0.03 | 1.03 ± 0.11 | 62.1 ± 12.5 | 5.8 | 4.2 ± 0.4 | 69.1 ± 7.3 | – | – | – | –
B2 | 12.4 ± 0.8 | 13.4 | 8.5 ± 0.1 | 689 ± 41.5 | 51.6 ± 3.6 | 3.1 | 3.9 ± 0.3 | 76.7 ± 5.2 | 54.1 ± 8.0 | 0.005 | 0.003 | 0.06
B3 | – | – | – | – | 60.9 ± 13.7 | 23.1 | 14 ± 1.9 | 235 ± 23.4 | 61.93 ± 5.61 | – | 8.66 ± 0.54 | 140 ± 7.4
B4 | – | – | – | – | 19.6 ± 1.8 | 59 | 35.6 ± 1.4 | 1830 ± 107 | 50.6 ± 8.7 | 25.5 | 15.4 ± 1.7 | 308 ± 20
